The target of experiment [1] is T1, VEGFR-2/NP-1 co-receptor complex (cells co-expressing hVEGFR-2 and hNP-1) (human, UniProt P35968 20-1356; O14786 22-923).
T1 construct: whole, on cells; All numbers printed for cells co-expressing both receptors are put on this molecule; also called R2 + NP1 Cells; VEGFR-2/NP-1 complex
Put plainly: 125I-VEGF165 affinity labeling of HUVEC, VEGFR-2 immunoprecipitation, 100 µM peptide (FIG. 10A). How it is done:
(§1) The crosslinker is removed with a single, ice cold, large volume wash (15 ml DPBS, Gibco). The cells are then lysed using RIP buffer (20 mM Tris HCl, pH 7.4; 100 mM NaCl; 1 mM EDTA; 10 mM NaI; 0.5% IGEPAL CA-630; 0.5% Na-deoxycholate; 1% BSA; all from Sigma). The lysate is then transferred to 1.5 ml conical tubes and centrifuged at 13,000×g to pellet the cellular debris. […] The precipitation tube is then incubated overnight at 4° C. on a nurator. The following morning the beads are washed three times in TNEN buffer (20 mM Tris-HCl pH 7.4; 100 mM NaCl; and 0.5% IGEPAL CA-630, all from Sigma), and heated for two minutes at 100° C. in 25 μl of 1×sample loading dye (5′-3′). The samples are then centrifuged to separate the beads from the sample buffer, and 20 μl of the sample buffer is loaded onto 6% SDS-PAGE gels (Novex). The gels are run at 35 mA for approximately 70 minutes, and then equilibrated in a drying buffer (10% acetic acid; 10% methanol, 80% H₂O) for 15 minutes and dried on a gel drier. The dried gels are then exposed to a phosphor screen overnight and developed using a Storm system (Molecular Dynamics).
(§2) Further amino terminal deletions were conducted.

For experiment [2], the target named is T2, human vascular endothelial growth factor receptor-2 (hVEGFR-2) (human, UniProt P35968 20-1356).
T2 construct: whole, on cells; also called flk-1; FLK-1
Put plainly: 125I-VEGF165 (287 pM) competition by cold ligand, COS-1 cells overexpressing VEGFR-2. Here is the method: The cells were then rinsed three times with ice cold binding buffer to remove unbound ligand, lysed, and transferred to 12×75 mm test tubes for counting on a gamma counter. The IC₅₀ values were calculated by fitting the data to a four parameter logistic equation (Prism software).

For experiment [3], the target named is T3, human Neuropilin-1 (hNP-1) (human, UniProt O14786 22-923).
T3 construct: whole, on cells; also called hNeuropilin-1
Put plainly: 125I-VEGF165 competition, whole COS-1 cells. Here is the method:
(§3) Cells are plated the day before experimentation at 200,000 cells per well in twelve well tissue culture plates (VWR) in 1 ml of growth medium specific for each cell type. On the day of experimentation, the cells were pre-equilibrated at 4° C. for 30 to 60 minutes in binding buffer (0.2% BSA, Sigma; 25 mM Hepes, Gibco; MEM, Gibco). […] The binding reaction is allowed to reach equilibrium for four hours at 4° C. with gentle agitation.
(§4) Unbound ligand is then removed by quickly washing three times with 5 ml ice cold BSA-free binding buffer (MEM, Gibco, 25 mM Hepes, Gibco). Cells are lysed by the addition of 250 μl of RIPS Buffer (previously described), and the lysed cells are transferred to 12×75 mm test tubes and counted using a gamma counter. Generation of competition curves and IC₅₀ values are performed using the Prism software package (Graphpad Software Inc., San Diego, Calif.).

The target in experiment [4] is T2, human vascular endothelial growth …. In words: cell-based or functional assay.
Experiment [5] shares this target. Put plainly: cell-based or functional assay. The source holds these as a separate data set.
Experiment [6] addresses T1, VEGFR-2/NP-1 co-receptor complex (cells …). In words: 125I-VEGF165 affinity labeling of HUVEC, VEGFR-2 immunoprecipitation, 100 µM peptide (FIG. 10B). How it is done: as §1, §2
Experiment [7] has as its target T2, human vascular endothelial growth …. In words: 125I-VEGF165 competition, whole COS-1 cells. Here is the method: as §3, §4
Experiment [8] concerns the target T1, VEGFR-2/NP-1 co-receptor complex (cells …). In words: 125I-VEGF165 competition, stable Balb/C 3T3 A31 cells.
For experiment [9], the target named is T3, human Neuropilin-1 (hNP-1). The description is as above.
Experiment [10] deals with T1, VEGFR-2/NP-1 co-receptor complex (cells …). Put plainly: 125I-VEGF165 competition on COS-1 cells and affinity labeling of HUVEC.

T1 sequence (P35968 20-1356, chain 1 of 2): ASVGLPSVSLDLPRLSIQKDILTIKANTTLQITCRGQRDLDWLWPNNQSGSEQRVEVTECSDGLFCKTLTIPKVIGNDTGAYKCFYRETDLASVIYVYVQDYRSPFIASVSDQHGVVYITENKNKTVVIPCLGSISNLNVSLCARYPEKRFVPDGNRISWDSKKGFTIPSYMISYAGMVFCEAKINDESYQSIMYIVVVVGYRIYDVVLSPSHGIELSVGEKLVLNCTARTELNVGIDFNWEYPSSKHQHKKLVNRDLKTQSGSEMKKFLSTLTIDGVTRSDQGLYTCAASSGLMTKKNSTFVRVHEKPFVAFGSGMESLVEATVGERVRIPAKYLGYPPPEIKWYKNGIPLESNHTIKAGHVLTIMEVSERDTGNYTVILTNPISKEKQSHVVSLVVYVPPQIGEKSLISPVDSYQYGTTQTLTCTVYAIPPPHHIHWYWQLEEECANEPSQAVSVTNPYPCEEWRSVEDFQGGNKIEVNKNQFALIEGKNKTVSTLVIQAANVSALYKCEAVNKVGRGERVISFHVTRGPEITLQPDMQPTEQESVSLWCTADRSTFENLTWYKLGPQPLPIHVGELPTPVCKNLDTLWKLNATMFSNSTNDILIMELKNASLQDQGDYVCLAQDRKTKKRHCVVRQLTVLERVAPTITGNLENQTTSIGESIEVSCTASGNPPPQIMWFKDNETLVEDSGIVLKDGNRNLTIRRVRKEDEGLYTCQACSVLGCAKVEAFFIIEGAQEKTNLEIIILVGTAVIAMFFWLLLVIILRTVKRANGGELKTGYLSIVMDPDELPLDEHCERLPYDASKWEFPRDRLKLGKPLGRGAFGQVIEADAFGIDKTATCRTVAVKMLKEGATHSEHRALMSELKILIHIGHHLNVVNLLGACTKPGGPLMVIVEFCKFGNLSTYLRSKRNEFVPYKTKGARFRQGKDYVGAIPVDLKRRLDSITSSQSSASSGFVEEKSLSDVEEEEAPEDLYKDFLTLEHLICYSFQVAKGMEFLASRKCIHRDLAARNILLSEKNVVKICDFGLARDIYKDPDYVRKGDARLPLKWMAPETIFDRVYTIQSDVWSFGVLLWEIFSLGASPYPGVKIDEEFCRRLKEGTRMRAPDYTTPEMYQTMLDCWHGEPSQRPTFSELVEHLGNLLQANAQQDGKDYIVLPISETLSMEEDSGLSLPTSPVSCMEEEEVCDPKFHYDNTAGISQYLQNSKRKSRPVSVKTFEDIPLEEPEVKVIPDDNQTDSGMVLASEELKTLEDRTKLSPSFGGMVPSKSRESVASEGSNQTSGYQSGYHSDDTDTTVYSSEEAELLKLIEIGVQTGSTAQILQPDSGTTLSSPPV
T1 sequence (O14786 22-923, chain 2 of 2): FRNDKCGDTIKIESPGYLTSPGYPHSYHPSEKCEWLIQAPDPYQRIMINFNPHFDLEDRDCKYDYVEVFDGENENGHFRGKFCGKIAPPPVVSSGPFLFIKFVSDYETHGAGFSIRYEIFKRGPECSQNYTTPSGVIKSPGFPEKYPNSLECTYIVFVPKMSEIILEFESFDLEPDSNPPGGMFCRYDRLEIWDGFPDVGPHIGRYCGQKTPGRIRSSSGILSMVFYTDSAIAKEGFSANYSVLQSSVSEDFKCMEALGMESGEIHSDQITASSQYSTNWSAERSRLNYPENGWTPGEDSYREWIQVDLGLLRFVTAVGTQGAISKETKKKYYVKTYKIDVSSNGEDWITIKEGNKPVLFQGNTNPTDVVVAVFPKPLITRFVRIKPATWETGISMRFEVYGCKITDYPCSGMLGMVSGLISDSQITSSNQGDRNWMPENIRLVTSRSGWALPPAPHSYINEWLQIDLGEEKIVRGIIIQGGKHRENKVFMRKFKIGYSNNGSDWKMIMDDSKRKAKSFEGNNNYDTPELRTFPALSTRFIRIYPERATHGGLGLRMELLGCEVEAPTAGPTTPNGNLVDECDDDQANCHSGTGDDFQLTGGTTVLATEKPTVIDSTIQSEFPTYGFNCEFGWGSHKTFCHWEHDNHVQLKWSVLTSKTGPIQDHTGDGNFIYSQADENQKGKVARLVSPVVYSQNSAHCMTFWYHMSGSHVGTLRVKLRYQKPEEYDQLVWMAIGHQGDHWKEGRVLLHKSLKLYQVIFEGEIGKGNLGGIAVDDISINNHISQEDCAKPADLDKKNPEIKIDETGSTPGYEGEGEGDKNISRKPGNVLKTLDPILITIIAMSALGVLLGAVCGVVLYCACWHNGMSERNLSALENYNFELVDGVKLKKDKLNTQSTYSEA
T2 sequence (P35968 20-1356): as the sequence (P35968 20-1356, chain 1 of 2) above
T3 sequence (O14786 22-923): as the sequence (O14786 22-923, chain 2 of 2) above

B1: P6V8-8N (peptide)
peptide: RRREKQRPCDKPRR
notes: also called PGV8-8N
As to B1, in [1], the binding result is “binds”.

B2: VEGF121 (ligand, UniProt P15692-9 27-147, looked up)
chain: APMAEGGGQNHHEVVKFMDVYQRSYCHPIETLVDIFQEYPDEIEYIFKPSCVPLMRCGGCCNDEGLECVPTEESNITMQIMRIKPHQGQHIGEMSFLQHNKCECRPKKDRARQEKCDKPRR
B2 displayed a half-maximal inhibitory concentration (IC50) in [2] of 0.312 nM. In addition, the binding result in [3] is reported as “no binding”. In [4], the “EC50 of VEGF121, VEGFR-2 anti-phosphotyrosine assay in HUVEC, no peptide added” value turned out to be 2.45 nM; the “EC50 of VEGF121, VEGFR-2 anti-phosphotyrosine assay in HUVEC, with 100 µM P6” value is 2.4 nM; the “EC50 of VEGF121, VEGFR-2 anti-phosphotyrosine assay in HUVEC, with 100 µM P6V8” value was found to be 4.07 nM; the “EC50 of VEGF121, VEGFR-2 anti-phosphotyrosine assay in HUVEC, with 100 µM P6V8-3N” value was determined as 1.17 nM. Further, in experiment [4], the “EC50 of VEGF121, VEGFR-2 anti-phosphotyrosine assay in HUVEC, with 100 µM P6V8-3N (second row with this label)” value is 1.62 nM; the “EC50 of VEGF121, VEGFR-2 anti-phosphotyrosine assay in HUVEC, with 100 µM P6V8-3NCS” value came to 4.57 nM; the “EC50 of VEGF121, VEGFR-2 anti-phosphotyrosine assay in HUVEC, with 100 µM P6V8-3NCS1-7CC” value was found to be 3.31 nM; the “EC50 of VEGF121, VEGFR-2 anti-phosphotyrosine assay in HUVEC, with 100 µM P6V8-3NCSA7, 8, 10, 12” value amounted to 17.8 nM. In addition, in experiment [4], the “EC50 of VEGF121, VEGFR-2 anti-phosphotyrosine assay in HUVEC, with 100 µM P6V8-3NCSC13C18” value turned out to be 2.09 nM; the “Log EC50 of VEGF121, VEGFR-2 anti-phosphotyrosine assay in HUVEC, no peptide added” value was -8.61; the “Log EC50 of VEGF121, VEGFR-2 anti-phosphotyrosine assay in HUVEC, with 100 µM P6” value was -8.62; the “Log EC50 of VEGF121, VEGFR-2 anti-phosphotyrosine assay in HUVEC, with 100 µM P6V8” value was -8.39. Also, in [4], the “Log EC50 of VEGF121, VEGFR-2 anti-phosphotyrosine assay in HUVEC, with 100 µM P6V8-3N” value was -8.93; the “Log EC50 of VEGF121, VEGFR-2 anti-phosphotyrosine assay in HUVEC, with 100 µM P6V8-3N (second row with this label)” value was -8.79; the “Log EC50 of VEGF121, VEGFR-2 anti-phosphotyrosine assay in HUVEC, with 100 µM P6V8-3NCS” value is -8.34; the “Log EC50 of VEGF121, VEGFR-2 anti-phosphotyrosine assay in HUVEC, with 100 µM P6V8-3NCS1-7CC” value was -8.48. In addition, in experiment [4], the “Log EC50 of VEGF121, VEGFR-2 anti-phosphotyrosine assay in HUVEC, with 100 µM P6V8-3NCSA7, 8, 10, 12” value is -7.75 and the “Log EC50 of VEGF121, VEGFR-2 anti-phosphotyrosine assay in HUVEC, with 100 µM P6V8-3NCSC13C18” value was -8.68. For the same molecule, in [5], the “EC50 of VEGF121 for VEGFR-2 phosphorylation in HUVEC in the presence of 100 µM P6 (FIG. 8)” value was 2.38 nM; the “EC50 of VEGF121 for VEGFR-2 phosphorylation in HUVEC in the presence of 100 µM P6V8 (FIG. 8)” value is 4.04 nM; the “EC50 of VEGF121 for VEGFR-2 phosphorylation in HUVEC with antagonist P6V8-3NCSC13C18 (FIG. 12)” value was 2.08 nM; the “EC50 of VEGF121 for VEGFR-2 phosphorylation in HUVEC, no peptide (FIG. 8)” value came to 1.84 nM. Also, in experiment [5], the “EC50 of VEGF121 for VEGFR-2 phosphorylation in HUVEC, no peptide (FIG. 12)” value came to 2.75 nM and the “EC50 of VEGF121 for VEGFR-2 phosphorylation in HUVEC, no peptide (FIG. 13)” value was found to be 3.38 nM.

B3: P6V8-3NCS-1C (peptide)
peptide: KGRGKRRREKQRPSDKPR
As for B3, the binding result in experiment [6] is recorded as “binds”.

B4: AS-4 (peptide)
peptide: RRPKGRGKRRREAAAPSDKPRR
notes: also called NP-1 selective peptide
As for B4, the binding result in experiment [7] was “no binding”. The IC50 was determined as 300 nM in [8] and 17.8 nM in experiment [9].

B5: P6V8-9N (peptide)
peptide: RREKQRPCDKPRR
With B5, the binding result in experiment [7] was “no binding”; in experiment [10], “binds”.

Source of the values: patent US20030186868A1 (Regeneron, published 2003).
